# Test results: publication PMC6093632 (Science Advances, 2018)
# B1: full-length rat TRPV6 (natural protein, UniProt Q9R186 41-767, looked up)
# chain: MGWSLPKEKGLILCLWNKFCRWFHRRESWAQSRDEQNLLQQKRIWESPLLLAAKENNVQALIKLLKFEGCEVHQKGAMGETALHIAALYDNLEAAMVLMEAAPELVFEPMTSELYEGQTALHIAVINQNVNLVRALLARGASVSARATGSVFHYRPHNLIYYGEHPLSFAACVGSEEIVRLLIEHGADIRAQDSLGNTVLHILILQPNKTFACQMYNLLLSYDGGDHLKSLELVPNNQGLTPFKLAGVEGNIVMFQHLMQKRKHIQWTYGPLTSTLYDLTEIDSSGDDQSLLELIVTTKKREARQILDQTPVKELVSLKWKRYGRPYFCVLGAIYVLYIICFTMCCVYRPLKPRITNRTNPRDNTLLQQKLLQEAYVTPKDDLRLVGELVSIVGAVIILLVEIPDIFRLGVTRFFGQTILGGPFHVIIVTYAFMVLVTMVMRLTNSDGEVVPMSFALVLGWCNVMYFARGFQMLGPFTIMIQKMIFGDLMRFCWLMAVVILGFASAFYIIFQTEDPDELGHFYDYPMALFSTFELFLTIIDGPANYDVDLPFMYSITYAAFAIIATLLMLNLLIAMMGDTHWRVAHERDELWRAQVVATTVMLERKLPRCLWPRSGICGREYGLGDRWFLRVEDRQDLNRQRIRRYAQAFQQQDDLYSEDLEKDSGEKLEMARPFGAYLSFPTPSVSRSTSRSSTNWDRLRQGALRKDLQGIINRGLEDGEGWEYQI
# Target: the molecule itself
# Test: cryo-EM structure
protein,measurement,value
B1,stoichiometry N,4 subunits
